This test addresses GFP-tagged Tks5 (GFP-Tks5), in 293T cells. The test is described as follows: coimmunoprecipitation (IP FLAG, immunoblot quantification). The settings on record: n = 4 experiments, parent: est. 100, read off a plot.
Consider “FLAG-MAP1B-LC1 (wild type) (from UniProt P46821) K41A; P42A”, for which the percent of parent came to 120 % WT.
On to “FLAG-MAP1B-LC1 (wild type) (from UniProt P46821) K60A; P61A”, for which the percent of parent worked out at 78 % WT.
For “FLAG-MAP1B-LC1 (wild type) (from UniProt P46821) P66A; K67A; P68A” the value was 70 % WT; for “FLAG-MAP1B-LC1 (wild type) (from UniProt P46821) P6A; R7A”, 120 % WT; for “FLAG-MAP1B-LC1 (wild type) (from UniProt P46821) P145A; P146A”, 130 % WT.
For the substance “FLAG-MAP1B-LC1 (wild type) (from UniProt P46821) K95A; P96A”, the percent of parent was found to be 110 % WT.

For the origin of these results see article PMC10866687.
